How the values were obtained:
[1] = target: T1, glutathione S-transferase (UniProt P08515 P08515:1-218); assay: EMSA; control; conditions: tags: pGEX-3X (Pharmacia), chain copies: 2
[2] = target: T2, GST/ILF delta1 (amino-terminal deletion) (Homo sapiens, UniProt Q01167 SEQ:97-540); assay: EMSA; 4 ug protein; conditions: tags: N-terminal GST (pGEX-3X)
[3] = target: T3, beta-galactosidase/ILF fusion (Homo sapiens, UniProt Q01167 SEQ:138-372); assay: competition; competes with HIV-LTR probe at 10- or 50-fold excess; conditions: tags: N-terminal beta-galactosidase (lambda gt11)
T3 sequence (Q01167 258-492): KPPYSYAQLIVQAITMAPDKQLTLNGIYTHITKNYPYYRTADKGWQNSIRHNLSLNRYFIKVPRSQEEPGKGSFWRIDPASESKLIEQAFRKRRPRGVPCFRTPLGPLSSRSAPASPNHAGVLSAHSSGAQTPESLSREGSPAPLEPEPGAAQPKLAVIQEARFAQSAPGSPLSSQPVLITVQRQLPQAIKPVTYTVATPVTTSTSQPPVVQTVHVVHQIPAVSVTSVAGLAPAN

[4] = target: T4, GST/ILF amino and carboxyl deletion, fork head retained (Homo sapiens, UniProt Q01167 SEQ:97-367); assay: EMSA; construct naming (delta2/delta3) differs between legend and methods; conditions: tags: N-terminal GST (pGEX-3X)
T4 sequence (Q01167 217-487, stated change not applied): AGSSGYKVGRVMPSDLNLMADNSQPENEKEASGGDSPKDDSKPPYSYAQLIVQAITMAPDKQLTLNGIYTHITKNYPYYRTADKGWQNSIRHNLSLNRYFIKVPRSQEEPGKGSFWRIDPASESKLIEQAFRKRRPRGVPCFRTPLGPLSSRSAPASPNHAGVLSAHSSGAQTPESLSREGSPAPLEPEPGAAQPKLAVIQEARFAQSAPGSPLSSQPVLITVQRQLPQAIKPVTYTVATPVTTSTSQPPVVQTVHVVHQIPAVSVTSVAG

[5] = target: T5, GST/ILF amino, carboxyl and fork head deletion (Homo sapiens, UniProt Q01167 SEQ:97-186); assay: EMSA; fork head deleted; construct naming differs between legend and methods; conditions: tags: N-terminal GST (pGEX-3X)
T5 sequence (Q01167 217-306, stated change not applied): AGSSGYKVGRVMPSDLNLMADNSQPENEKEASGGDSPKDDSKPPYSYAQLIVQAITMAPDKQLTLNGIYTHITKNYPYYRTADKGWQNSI

[6] = target: T1, glutathione S-transferase; assay: EMSA; control; conditions: tags: pGEX-3X (Pharmacia), chain copies: 2, label: 32P (when probe)
Description: (§1) The constructs tested included a deletion of the amino terminus of ILF, a deletion of both the amino and carboxyl termini of ILF, or a deletion of the fork head domain in addition to the amino and carboxyl termini of ILF. Oligonucleotides corresponding to the distal ILF site in the HIV-LTR, the NFAT site in the IL-2 promoter, and an HIV-LTR fragment containing the distal ILF site were used in gel retardation analysis.
(§2) Figure 5C: FIG. 5. Gel retardation analysis of glutathione S-transferase/ILF fusions. Gel retardation analysis was performed with either ILF oligonucleotides (A), a fragment extending from −310 and −255 in the HIV-LTR (B), or NFAT oligonucleotides (C) and 4 μg of each of the glutathione S-transferase/ILF fusions. Lane 0, probe alone; lane 1, glutathione S-transferase (GST) protein alone; lane 2, a deletion of both the amino and carboxyl-termini in the GST/ILF fusion (ΔILF3); lane 3, a deletion of the ILF fork head DNA binding domain in addition to the amino and carboxyl termini in the GST/ILF fusion (ΔILF2); lane 4, an amino-terminal deletion of ILF in the GST/ILF fusion (ΔILF1).

[7] = target: T2, GST/ILF delta1 (amino-terminal deletion); assay: EMSA; 4 ug protein; conditions: tags: N-terminal GST (pGEX-3X); label: 32P (when probe)
Description: as §1, §2

[8] = target: T4, GST/ILF amino and carboxyl deletion, …; assay: EMSA; 4 ug protein; conditions: tags: N-terminal GST (pGEX-3X); label: 32P (when probe)
Description: as §1, §2

[9] = target: T5, GST/ILF amino, carboxyl and fork head …; assay: EMSA; fork head deleted; conditions: tags: N-terminal GST (pGEX-3X); label: 32P (when probe)
Description: as §1, §2

[10] = target: T6, GST/ILF fusion (Example 3) (Homo sapiens, UniProt Q01167 SEQ:1-540); assay: EMSA; self-competition observed; conditions: tags: N-terminal GST (pGEX-3X); label: 32P (when probe)
T6 sequence (Q01167 121-660): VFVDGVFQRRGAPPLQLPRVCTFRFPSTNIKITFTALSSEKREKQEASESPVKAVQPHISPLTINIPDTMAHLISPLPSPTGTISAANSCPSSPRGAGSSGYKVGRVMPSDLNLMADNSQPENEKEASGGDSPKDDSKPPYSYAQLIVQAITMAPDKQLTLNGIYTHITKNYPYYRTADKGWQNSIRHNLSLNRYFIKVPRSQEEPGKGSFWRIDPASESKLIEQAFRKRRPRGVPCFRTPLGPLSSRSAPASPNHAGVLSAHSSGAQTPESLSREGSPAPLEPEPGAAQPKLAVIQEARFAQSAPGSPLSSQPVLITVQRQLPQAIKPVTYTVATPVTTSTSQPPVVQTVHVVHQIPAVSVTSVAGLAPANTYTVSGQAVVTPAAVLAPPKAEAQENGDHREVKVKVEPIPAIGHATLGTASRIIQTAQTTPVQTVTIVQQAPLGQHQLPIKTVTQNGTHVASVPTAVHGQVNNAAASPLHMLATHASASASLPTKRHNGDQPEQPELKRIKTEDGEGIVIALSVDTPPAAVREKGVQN
Experimental: Gel retardation of ILF with the IL-2 NFAT motif. (A) Oligonucleotides corresponding to the NFAT motif in the IL-2 promoter extending from −285 to −254 were end labeled with γP^32ATP and used in gel retardation analysis alone (lane 0), with glutathione-S-transferase (lane 1), or with a glutathione-S-transferase/ILF fusion protein (lanes 2–16). The specificity of binding was tested by competition with unlabeled oligonucleotides corresponding to the NFAT motif in the IL-2 promoter (lanes 2–4), sequences spanning −283 to −256 and −223 to −195 in the HIV-LTR which comprised distal (lanes 5–7) and proximal (lanes 8–10) NFAT motifs respectively, the hepatocyte nuclear factor HNF-3A binding site extending from −107 to −92 in the transthyretin promoter (lanes 11–13), and an AP-1 binding sequence extending from −103 to −83 in the early region 3 promoter (lanes 14–16). The unlabeled oligonucleotides were present in either an equimolar (lanes 2, 5, 8, 11, and 14), 5-fold (lanes 3, 6, 9, 12, and 15) or 20-fold (lanes 4, 7, 10, 13 and 16) molar excess of the labeled oligonucleotides. (B) Sequences of NFAT motifs in the IL-2 promoter and the distal and proximal regions of the HIV-LTR are shown.
Two complexes I and II were noted; the major complex (I) was due to full-length GST/ILF while the lower complex (II) was due to GST/ILF degradation products. […]

[11] = target: T3, beta-galactosidase/ILF fusion; assay: competition; complete competition; conditions: tags: N-terminal beta-galactosidase (lambda gt11)
[12] = target: T5, GST/ILF amino, carboxyl and fork head …; assay: EMSA; stated similar with proximal site; conditions: tags: N-terminal GST (pGEX-3X)
[13] = target: T2, GST/ILF delta1 (amino-terminal deletion); assay: EMSA; stated similar binding with proximal site; conditions: tags: N-terminal GST (pGEX-3X)
[14] = target: T4, GST/ILF amino and carboxyl deletion, …; assay: EMSA; stated similar binding with proximal site; conditions: tags: N-terminal GST (pGEX-3X)
[15] = target: T6, GST/ILF fusion (Example 3); assay: competition; 1-, 5-, 20-fold excess against IL-2 NFAT probe; conditions: tags: N-terminal GST (pGEX-3X)
[16] = target: T3, beta-galactosidase/ILF fusion; assay: competition; up to 50-fold excess; conditions: tags: N-terminal beta-galactosidase (lambda gt11)
[17] = target: T6, GST/ILF fusion (Example 3); assay: competition; no significant competition (also SEQ 27); conditions: tags: N-terminal GST (pGEX-3X)
[18] = target: T3, beta-galactosidase/ILF fusion; assay: competition; up to 50-fold excess; conditions: tags: N-terminal beta-galactosidase (lambda gt11); remark: listed apart in the source
Experimental: Figure 2: FIG. 2. Gel retardation analysis with β-galactosidase/ILF fusion protein. An HIV-LTR fragment extending from −310 to −255 was used in gel retardations with either β-galactosidase or β-galactosidase/ILF purified with anti-β-galactosidase sepharose chromatography. Lane 1, probe alone; lane 2, probe with 3 μg of β-galactosidase extract; lane 3, probe with 3 μg of β-galactosidase/ILF extract. Competition analysis with either a 10-fold (lanes 4, 6, 8, 10) or 50-fold (lanes 5, 7, 9, 11) molar excess of unlabeled oligonucleotides corresponding to ILF (lanes 4 and 5), NFAT (lanes 6 and 7), AP1 (lanes 8 and 9) and CREB (lanes 10 and 11) binding motifs are shown. Figure 3B: FIG. 3. Amino acid sequence of the ILF coding region. (A) A 543 amino acid open reading frame encoded by a portion of the ILF cDNA. The shaded region indicates the region of homology of ILF with the fork head and HNF-3A DNA binding domains. The circled region (GAGSSG) SEQ ID NO:12 contains homology with a nucleotide binding sequence, the boxed region (RKRRPR) SEQ ID NO:13 contains a potential nuclear localization signal, the underlined sequence (RTPLGPLSS) SEQ ID NO:14 is homologous to a region required for ubiquitin-mediated degradation, and the dotted line (NGT) indicates a potential N-glycosylation site. (B) The 3.0 kb ILF cDNA and the position of the 1629 bp open reading frame. […]

T2 sequence (Q01167 217-660, stated change not applied): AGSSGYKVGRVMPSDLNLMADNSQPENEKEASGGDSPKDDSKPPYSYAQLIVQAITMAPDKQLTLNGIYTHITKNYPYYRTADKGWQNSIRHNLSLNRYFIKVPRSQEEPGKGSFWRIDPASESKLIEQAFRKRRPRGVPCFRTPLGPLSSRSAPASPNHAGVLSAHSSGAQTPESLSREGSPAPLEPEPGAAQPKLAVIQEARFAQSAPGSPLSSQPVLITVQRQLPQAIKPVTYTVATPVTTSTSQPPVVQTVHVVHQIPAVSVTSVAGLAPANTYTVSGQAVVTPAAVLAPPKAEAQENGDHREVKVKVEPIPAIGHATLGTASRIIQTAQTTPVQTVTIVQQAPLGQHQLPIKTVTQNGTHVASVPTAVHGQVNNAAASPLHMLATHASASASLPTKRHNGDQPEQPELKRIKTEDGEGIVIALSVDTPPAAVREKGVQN
T1 sequence (P08515 whole entry, one chain of several): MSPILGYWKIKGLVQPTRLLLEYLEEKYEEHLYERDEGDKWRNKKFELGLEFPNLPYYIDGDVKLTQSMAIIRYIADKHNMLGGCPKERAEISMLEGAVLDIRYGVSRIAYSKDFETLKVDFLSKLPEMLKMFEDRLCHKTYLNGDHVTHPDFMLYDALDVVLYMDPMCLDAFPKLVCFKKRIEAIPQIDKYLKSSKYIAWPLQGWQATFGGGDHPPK

B1: HIV-1 LTR distal ILF motif (-283 to -256) (dsDNA)
DNA 1: GAAGAGGCCAATGAAGGAGAGAACAACA
DNA 2: TGTTGTTCTCTCCTTCATTGGCCTCTTC
[1]
  binding result: no binding
[2]
  binding result: binds
[3]
  binding result: binds
[4]
  binding result: binds
[5]
  binding result: no binding

B2: IL-2 promoter NFAT motif (-285 to -254) (dsDNA)
DNA 1: AATTGGAGGAAAAACTGTTTCATACAGAAGGCGT
DNA 2: ACGCCTTCTGTATGAAACAGTTTTTCCTCCAATT
[6]
  binding result: no binding
[7]
  binding result: binds
[8]
  binding result: binds
[9]
  binding result: no binding
[10]
  binding result: binds

B3: HIV-1 LTR proximal ILF motif (-223 to -195) (dsDNA)
DNA 1: GAGGACGCGGAGAAAGAAGTGTTAGTGTG
DNA 2: CACACTAACACTTCTTTCTCCGCGTCCTC
[11]
  binding result: binds
[12]
  binding result: no binding
[13]
  binding result: binds
[14]
  binding result: binds

B4: HIV-1 distal NFAT site (Example 3) (dsDNA)
DNA 1: GAAGAGGCCAATGAAGGAGAGAACAACA
DNA 2: TGTTGTTCTCTCCTTCATTGGCCTCTTC
[15]
  binding result: binds

B5: HIV-1 proximal NFAT site (Example 3) (dsDNA)
DNA 1: GAGGACGCGGAGAAAGAAGTGTTAAGTGTG
DNA 2: CACACTTAACACTTCTTTCTCCGCGTCCTC
[15]
  binding result: binds

B6: AP1 site, adenovirus E3 promoter (-103 to -83) (dsDNA)
DNA 1: GAAGTTCAGATGACTAACTCA
DNA 2: TGAGTTAGTCATCTGAACTTC
[16]
  binding result: no binding
[17]
  binding result: no binding

B7: CREB/ATF site, somatostatin promoter (-60 to -33) (dsDNA)
DNA 1: GGTTCCTCCTTGGCTGACGTCAGAGAGAGA
DNA 2: TCTCTCTCTGACGTCAGCCAAGGAGGAACC
[18]
  binding result: no binding

— patent US5534631, “Cellular factor ILF” (Board of Regents, The University of Texas System)
